Source: US20110014201A1

Molecular target: Recombinant human IL-18 (Peprotech 200-18) (human) (UniProt Q14116)
Test: cell-based or functional assay

recombinant IL-18BP/Fc chimera (R&D Systems, 119-BP), sequence (O95998 31-194, change not shown): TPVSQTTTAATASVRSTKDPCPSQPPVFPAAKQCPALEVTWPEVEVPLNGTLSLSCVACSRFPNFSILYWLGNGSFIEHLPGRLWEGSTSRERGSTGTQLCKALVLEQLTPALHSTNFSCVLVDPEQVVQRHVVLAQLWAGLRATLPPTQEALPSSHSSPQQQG
Recombinant human IL-18 (Peprotech 200-18) (human), sequence (Q14116 37-193 limits assumed): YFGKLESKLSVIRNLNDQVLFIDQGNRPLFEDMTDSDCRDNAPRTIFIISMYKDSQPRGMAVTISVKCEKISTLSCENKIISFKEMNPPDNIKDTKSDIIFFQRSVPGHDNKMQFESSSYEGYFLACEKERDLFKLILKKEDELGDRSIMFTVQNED

- ED50, inhibition of INF-γ release by KG1 cells: 0.52 nM
Substance: recombinant IL-18BP/Fc chimera (R&D Systems, 119-BP) (from UniProt O95998 31-194) (Fc fusion)
